Assay results as given in PMC3547798, “Binding of Nucleoid-Associated Protein Fis to DNA Is Regulated by DNA Breathing Dynamics”.

What was measured:
[1] = target: T1, Fis (Escherichia coli DH5alpha, UniProt P0A6R3 1-98); assay: EMSA; complex detectable at 0.25-0.50 uM Fis; salmon sperm DNA; 20 mM HEPES (pH not stated), 150 mM NaCl, 500 ug/mL BSA, 1 mM DTT, 0.1 mM EDTA, 0.5-1 ug/ul salmon sperm DNA, room temperature 30 min; DNA 100 nM or 500 nM-1 uM (Methods); 6% gel, 0.5x TBE; details: protein: recombinant; tags: N-terminal GST (pGEX-KG); label: 5'-biotin on forward strand; blunt
T1 sequence (P0A6R3 whole entry): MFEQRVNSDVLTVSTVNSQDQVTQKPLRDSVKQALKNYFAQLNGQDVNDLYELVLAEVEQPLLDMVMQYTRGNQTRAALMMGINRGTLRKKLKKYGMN

[2] = target: T1, Fis; assay: EMSA; significant complex at 0.25 uM Fis, stronger than FIS2; salmon sperm DNA; 20 mM HEPES (pH not stated), 150 mM NaCl, 500 ug/mL BSA, 1 mM DTT, 0.1 mM EDTA, 0.5-1 ug/ul salmon sperm DNA, room temperature 30 min; DNA 100 nM or 500 nM-1 uM (Methods); 6% gel, 0.5x TBE; details: protein: recombinant; tags: N-terminal GST (pGEX-KG); label: 5'-biotin on forward strand; blunt

B1: FIS1 (dsDNA)
DNA 1: AAATTTGTTTGAATTTTGAGCAAATTT
DNA 2: AAATTTGCTCAAAATTCAAACAAATTT
- binding result [1]: binds

B2: FIS2m2 (dsDNA)
DNA 1: AAATTTGTTTGGGCGCTGAGCAAATTT
DNA 2: AAATTTGCTCAGCGCCCAAACAAATTT
modifications: O6-methylguanine at nt 12 and 15 of strand 1 (positions -2, +1)
- binding result [2]: binds
